# Data from patent publication CN117964771A (ZHIZE TONGKANG GUANGZHOU BIOTECHNOLOGY CO LTD, dated 2024).
# T1: 人基质金属蛋白酶7(hMMP7)重组蛋白 (human, UniProt P09237 18-267, limits assumed)
# T1 construct: Recombinant protein made according to UniProt P09237; also called MMP7抗原; MMP7蛋白
# T1 sequence (looked up): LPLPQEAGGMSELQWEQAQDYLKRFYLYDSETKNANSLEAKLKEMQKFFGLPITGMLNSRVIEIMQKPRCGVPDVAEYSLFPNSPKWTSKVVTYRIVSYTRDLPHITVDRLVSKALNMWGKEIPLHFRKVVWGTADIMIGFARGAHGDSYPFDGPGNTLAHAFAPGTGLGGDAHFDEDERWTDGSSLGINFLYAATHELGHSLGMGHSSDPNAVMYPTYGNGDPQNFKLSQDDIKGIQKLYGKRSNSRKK
# Molecular target: T1, 人基质金属蛋白酶7(hMMP7)重组蛋白
# Test: SPR, labelled MMP7 immobilised on chip, antibody as analyte (100 nM, 2-fold dilutions), 1:1 Langmuir model
binder,measurement,value
"MMP7单克隆抗体M4 (antibody, mouse IgG1, kappa, V domains shown) VH: QVQLQQSGAELMKPGASVKLSCKASGYTFTSYYMYWVKQRPGQGLEWIGEINPSNADTEFNEKFKSKATLTVDKSSSTAYMQLSSLTSEDSAVYYCTRWPLYGAMDYWGQGTSVTVSS VL: DVQITQSPSYLAASPGETITINCRASKSISKYLAWYQEKPGKTNKLLIYSGHWLQSGIPSRFSGSGSGSDFTLTISSLEPEDFAMYYCQQHFEYPWTFGAGTKLELKR",Kd,< 1 nM
